{"source": "patent US6416758B1", "about": "(Board of Regents, The University of Texax System, priority 1999, dated 2002)", "key": {"[1]": {"target": "T1, VEGF alone or VEGF associated with sFlk-1 (VEGF:Flk-1) (Homo sapiens, UniProt P15692)", "T1 sequence (P15692 27-191 isoform P15692-4)": "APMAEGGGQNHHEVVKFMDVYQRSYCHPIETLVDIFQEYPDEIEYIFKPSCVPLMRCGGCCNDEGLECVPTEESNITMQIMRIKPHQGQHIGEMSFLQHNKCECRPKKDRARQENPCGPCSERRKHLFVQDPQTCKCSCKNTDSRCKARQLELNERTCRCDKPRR", "test": "Indirect and capture ELISA, VEGF alone vs VEGF associated with sFlk-1", "format": "binding", "experimental": "The Flk-1/SEAP protein was produced and purified as described by Tessler et al. (1994). Basically, the extracellular domain of Flk-1(sFlk-1) was produced in Spodoptera frugiperda (Sf9) cells and purified by immunoaffinity techniques utilizing a monoclonal anti-Flk-1 antibody (1A8). sFlk-1 was then biotinylated and bound on avidin-coated plates.\nThe reactivity was determined as described above for the initial screening.\nA capture ELISA was also developed. In the capture ELISA, microtiter plates were coated overnight at 4° C. with 100 ng of the indicated antibody. […] Streptavidin conjugated to peroxidase (Kirkegaard & Perry Laboratories, Inc.), diluted 1:2000, was used as a second layer and developed."}, "[2]": {"target": "T2, denatured VEGF121 and VEGF165 (Homo sapiens, UniProt P15692)", "T2 sequence (P15692 27-191 isoform P15692-4)": "T1 sequence (P15692 27-191 isoform P15692-4)", "test": "Western blot analysis", "format": "binding", "settings": "reducing and non-reducing conditions", "experimental": "The nitrocellulose membrane was blocked using Sea-Block PP82-41 (East Coast Biologics, Berwick, Me.), and probed with primary antibodies using a mini-blotter apparatus (Immunetics, Cambridge, Mass.). The membranes were developed after incubation with the appropriate peroxidase-conjugated secondary antibody by ECL enhanced chemiluminescence.\nWestern blot analyses of anti-VEGF antibodies were conducted by separating VEGF165 in the presence of 5% FCS using SDS-PAGE on a 12% gel and analyzing by a standard western blotting protocol using ECL detection. The primary antibodies were incubated with the nitrocellulose membrane using a multi-lane mini-blotter apparatus."}, "[3]": {"system": "VEGF-mediated growth of ABAE cells", "test": "Endothelial cell growth assay (MTS)", "format": "cell-based, bovine", "settings": "Table 5"}, "[4]": {"system": "NCI-H358 NSCLC and HT29 colon adenocarcinoma xenografts and normal organs", "test": "In vivo localization to human tumor xenografts in mice", "experimental": "Tumors were grown subcutaneously in immunocompromised mice (NCI-H358 NSCLC in nu/nu mice and HT29 colon adenocarcinoma in SCID mice) until the tumnor volume was approximately 1 cm^3. 100 μg of unlabeled antibody for studies using SCID mice, or 100 μg of biotinylated antibody for studies using nude mice, was injected intravenously via a tail vein. Twenty four hours later, the mice were anesthetized, perfused with PBS, and tumnor and organs including heart, lungs, liver, kidneys, intestines and spleen were collected and snap frozen in liquid nitrogen.\nThe tumor and organs from each mouse were sectioned on a cryostat and stained for antibody immunohistochemically as above, with the exception that sections from the nude mice were developed using peroxidase labeled streptavidin-biotin complex (Dako, Carpinteria, Calif.) and the sections from the SCID mice were developed using two peroxidase-conjugated secondary antibodies, a goat anti-mouse IgG+IgM followed by a rabbit anti-goat IgG.\n100 μg of GV39M and 3E7 or isotype-matched control IgG were injected into SCID mice bearing HT29 human colonic adenocarcinomas. Twenty-four hours later, the mice were sacrificed, exsanguinated and the tumors and tissues were removed. Frozen sections of the tumors and tissues were analyzed immunohistochemically to determine the binding and distribution of the antibodies (Table 4)."}, "[5]": {"system": "VEGFR2 (KDR/Flk-1; sFlk-1)", "test": "ELISA, VEGF binding to VEGFR2-coated wells", "set-up": "species or system mouse", "experimental": "(§1) FIG. 2. […] The plate was then incubated with rabbit anti-VEGF (A-20, Santa Cruz Biotechnology, Inc.) at 1 μg/ml and developed using a peroxidase conjugated goat anti-rabbit antibody. Assays were performed in triplicate. Mean percent binding in the absence of antibody is shown, together with the standard deviation.\n(§2) The assay was also performed by coating wells of a microtiter plate with either control or test IgG."}, "[6]": {"system": "VEGFR1 (Flt-1/Fc)", "test": "ELISA, VEGF binding to VEGFR1-coated wells", "settings": "Table 5", "experimental": "as §1, §2"}, "[7]": {"system": "NCI-H358 NSCLC", "test": "Growth inhibition of newly-implanted NCI-H358 xenografts", "format": "in vivo, mouse", "settings": "100 μg i.p. 2 times per wk from day 1, nu/nu mice", "experimental": "(§3) FIG. 3A and FIG. 3B. […] FIG. 3A: 1×10^7 NCI-H358 NSCLC cells were injected subcutaneously into nu/nu mice on day 0. FIG. 3B: 5×10^6 A673 rhabdomyosarcoma cells were injected subcutaneously into nu/nu mice on day 0. Mice were injected i.p. with the indicated IgG on day 1 and 2 times/week thereafter. […] Tumors were measured 2-3 times per week. Mean and standard error is shown for the duration of the study in FIG. 3A, while data for the last day of the study (day 26) is shown in FIG. 3B.\n(§4) Nu/nu mice were injected subcutaneously with either 1×10^7 NCI-H358 NSCLC cells or 5×10^6 A673 rhabdomyosarcoma cells on day 0. […] The tumors were then measured twice per wk for a period of approximately six wk for the NCI-H358 bearing mice and four wk for the A673 bearing mice. Tumor volume was calculated according to the formula: volume=L×W×H, where L=length, W=width, H=height."}, "[8]": {"system": "A673 rhabdomyosarcoma", "test": "Growth inhibition of newly-implanted A673 xenografts", "format": "in vivo, mouse", "settings": "100 μg i.p. 2 times per wk from day 1, nu/nu mice", "experimental": "as §3, §4"}, "[9]": {"system": "NCI-H358 NSCLC tumors", "test": "Treatment of established NCI-H358 xenografts", "format": "in vivo, mouse", "experimental": "FIG. 4. […] Mean tumor volume along with the SEM over 116 days is shown.\n(§5) FIG. 5A and FIG. 5B. […] Treatments (T) were 100 μg of the IgG given i.p., except for the initial treatment that consisted of 500 μg of the IgG given i.v. Mean tumor volume along with the SEM is shown. At the end of the study (day 116), the mice were sacrificed and the tumors dissected out and weighed. […] The mice were treated every other day as indicated (T). […] Mean tumor volume along with the SE is shown.\n(§6) Male nu/nu mice bearing subcutaneous NCI-H358 tumors or HT1080 fibrosarcoma 200-400 mm^3 in size were injected i.p. with test or control antibodies. The NCI-H358 bearing mice were treated with 100 μg of antibodies per injection three times a week during the first week and twice a week during the second and third week. The mice were then switched to 50 μg per injection every five days. The HT1080 bearing mice were treated with 100 μg of the indicated antibody or saline every other day throughout the duration of the study. In both studies, mice were sacrificed when their tumors reached 2500 mm^3 size or earlier if tumors began to ulcerate.\nDoses were 50-100 μg every 3-5 days. […] In addition to measuring mean tumor volume (FIG. 4), photographs of the mice from each treatment group were also taken to show the differences in tumor size and appearance at the end of the study."}, "[10]": {"system": "HT1080 fibrosarcoma", "test": "Treatment of established HT1080 xenografts", "format": "in vivo, mouse", "settings": "100 μg i.p. every other day", "experimental": "as §5, §6"}, "[11]": {"system": "A673 rhabdomyosarcoma", "test": "Treatment of established A673 tumors", "format": "in vivo, mouse", "settings": "mice with established tumors"}, "[12]": {"system": "LS174T colon adenocarcinoma", "test": "Treatment of established LS174T tumors", "format": "in vivo, mouse", "settings": "mice with established tumors"}, "[13]": {"test": "GUS enzymatic activity", "format": "biochemical", "from_the_text": "The 6-His GUS was pure based upon SDS-PAGE, where it ran as a single band of 75 kDa band. On gel filtration columns, the 6-His GUS runs as a tetramer of about 300 kDa."}, "[14]": {"test": "Blood clearance of radioiodinated 2C3-GUS", "format": "in vivo, mouse", "settings": "125I-labelled, intravenous injection into mice", "experimental": "2C3-GUS was radioiodinated with ^125I to a specific activity of 5×10^6 cpm/μg. After intravenous injection into mice, the radioiodinated 2C3-GUS cleared from the blood with a t½α of about 6 hours and a t 1/2β of about 25 hours."}, "[15]": {"system": "human NCI-H358 NSCLC tumors", "test": "In vivo localization of 2C3-GUS", "set-up": "species or system mouse", "settings": "SCID mice bearing s.c. NCI-H358"}, "[16]": {"settings": "24 hours after i.v. antibody, 2C3 in NCI-H358/nu/nu, 3E7 and GV39M in HT29/SCID mice"}}}
{"substance": "2C3: anti-VEGF monoclonal antibody, IgG2a,k, hybridoma ATCC PTA 1595; blocks VEGF binding to VEGFR2 but not VEGFR1 [Clone 2C3]", "values": [{"measurement": "Predominant Reactivity", "setting": "[1]", "result": "VEGF"}, {"measurement": "Reactivity with VEGF on western blots", "setting": "[2]", "result": "react"}, {"measurement": "Blocks VEGF-induced proliferation", "setting": "[3]", "result": "Yes"}, {"measurement": "Immunohistochemical Reactivity, Heart", "setting": "[4]; [16]", "result": "−"}, {"measurement": "Immunohistochemical Reactivity, Intestine", "setting": "[4]; [16]", "result": "−"}, {"measurement": "Immunohistochemical Reactivity, Kidney", "setting": "[4]; [16]", "result": "−"}, {"measurement": "Immunohistochemical Reactivity, Liver", "setting": "[4]; [16]", "result": "−"}, {"measurement": "Immunohistochemical Reactivity, Lung", "setting": "[4]; [16]", "result": "−"}, {"measurement": "Immunohistochemical Reactivity, Spleen", "setting": "[4]; [16]", "result": "−"}, {"measurement": "Immunohistochemical Reactivity, Tumor", "setting": "[4]; [16]", "result": "3+"}, {"measurement": "In vivo tumor localization pattern", "setting": "[4]; CT connective tissue, BV blood vessels", "result": "Moderate to strong"}, {"measurement": "Localization in the HT29 human tumor model", "setting": "[4]; HT29", "result": "localized strongly to the connective tissue"}, {"measurement": "In vivo normal mouse tissue localization", "setting": "[4]; mouse, in vivo", "result": "None detectable"}, {"measurement": "Structure specifically bound after i.v. injection", "setting": "[4]; mouse, in vivo, iv", "result": "tumor stroma"}, {"measurement": "Blocking of VEGF binding to VEGFR2 in ELISA", "setting": "[5]; 100-1000 fold excess", "result": "blocked"}, {"measurement": "Reduction in VEGF binding to VEGFR2", "setting": "[5]; 100 fold molar excess over VEGF", "result": "about 74%"}, {"measurement": "VEGF bound to VEGFR2-coated wells, % of the amount bound in the absence of antibody", "setting": "[5]; 1000-fold molar excess over VEGF (1 nM VEGF)", "result": "~19", "unit": "%"}, {"measurement": "Reduction in VEGF binding to VEGFR2", "setting": "[5]; 1000 fold molar excess over VEGF", "result": "about 81%"}, {"measurement": "Blocks VEGF from binding to VEGFR2", "setting": "[5]; Table 5", "result": "Yes"}, {"measurement": "Blocks VEGF from binding to VEGFR1", "setting": "[6]", "result": "No"}, {"measurement": "Final tumor volume, NCI-H358 NSCLC", "setting": "[7]", "result": "approximately 150 mm^3"}, {"measurement": "Final tumor volume, A673 rhabdomyosarcoma", "setting": "[8]", "result": "approximately 150 mm^3"}, {"measurement": "Mean tumor volume after approximately 14 wk of treatment", "setting": "[9]; FIG. 5A study, 100 μg, at start 480 mm^3 (2C3), 428 mm^3 (3E7)", "result": 84, "unit": "mm^3"}, {"measurement": "Decrease in mean tumor volume", "setting": "[9]; FIG. 5A study, approximately 14 wk", "result": "approximately 80%"}, {"measurement": "Mean tumor weight at the end of the study", "setting": "[9]; FIG. 5A study, day 116", "result": 0.054, "unit": "g"}, {"measurement": "Mean tumor volume at the end of the study, % of the initial mean tumor volume", "setting": "[9]; established tumors 300-450 mm^3, 50-100 μg i.p. every 3-5 days, approximately 10 weeks of treatment", "result": 30, "unit": "%"}, {"measurement": "Effect on growth of HT1080 tumors", "setting": "[10]", "result": "arrested the growth of the tumors"}, {"measurement": "Effect on growth of established A673 tumors", "setting": "[11]", "result": "significantly slowed the growth"}, {"measurement": "Effect on growth of established LS174T tumors", "setting": "[12]", "result": "significantly slowed the growth"}]}
{"substance": "2C3-GUS [Clone 2C3-GUS]", "values": [{"measurement": "Enzymatic activity of GUS", "setting": "[13]", "result": "retained enzymatic activity"}, {"measurement": "t 1/2β, clearance from the blood", "setting": "[14]", "result": "about 25 hours"}, {"measurement": "t½α, clearance from the blood", "setting": "[14]", "result": "about 6 hours"}, {"measurement": "Localization in tumor after i.v. injection", "setting": "[15]", "result": "specifically localized to tumor vasculature and surrounding tumor stroma"}, {"measurement": "Staining of normal tissues after i.v. injection", "setting": "[15]", "result": "unstained"}]}
